Test results published in the Immune Epitope Database (IEDB).

Legend:
HLA-A*01:01 = assay: IEDB peptide-MHC binding, purified MHC/competitive/radioactivity; filed as Kd, often an IC50 or EC50 that approximates it; ≥ and ≤ were set here for values at or beyond the usual limits of such assays; conditions: source organism: Dengue virus 2 Jamaica/1409/1983
HLA-B*15:01 [1] = assay: as above
HLA-A*02:01 [2] = assay: IEDB peptide-MHC binding, purified MHC/competitive/fluorescence; filed as Kd, often an IC50 or EC50 that approximates it; ≥ and ≤ were set here for values at or beyond the usual limits of such assays
HLA-A*02:01 [3] = assay: IEDB peptide-MHC binding, purified MHC/competitive/radioactivity; filed as Kd, often an IC50 or EC50 that approximates it; ≥ and ≤ were set here for values at or beyond the usual limits of such assays
HLA-B*18:01 = assay: as above
HLA-B*40:01 = assay: as above
HLA-B*40:02 = assay: as above
HLA-B*44:02 = assay: as above
HLA-B*44:03 = assay: as above
HLA-B*45:01 = assay: as above
HLA-A*32:01 = assay: as above
HLA-B*15:01 [4] = assay: IEDB peptide-MHC binding, purified MHC/competitive/fluorescence; filed as Kd, often an IC50 or EC50 that approximates it; ≥ and ≤ were set here for values at or beyond the usual limits of such assays
HLA-A*02:02 = assay: IEDB peptide-MHC binding, purified MHC/competitive/radioactivity; filed as Kd, often an IC50 or EC50 that approximates it; ≥ and ≤ were set here for values at or beyond the usual limits of such assays; conditions: source organism: Trypanosoma cruzi
HLA-A*02:03 = assay: as above
HLA-A*02:06 = assay: as above; conditions: source organism: Trypanosoma cruzi
HLA-A*68:02 = assay: as above
HLA-A*26:01 = assay: IEDB peptide-MHC binding, purified MHC/competitive/fluorescence; filed as Kd, often an IC50 or EC50 that approximates it; ≥ and ≤ were set here for values at or beyond the usual limits of such assays
HLA-B*08:01 = assay: IEDB peptide-MHC binding, purified MHC/competitive/radioactivity; filed as Kd, often an IC50 or EC50 that approximates it; ≥ and ≤ were set here for values at or beyond the usual limits of such assays
[5] = source organism: SARS coronavirus Tor2
[6] = source organism: Lymphocytic choriomeningitis virus (strain Armstrong)
[7] = source organism: Vaccinia virus WR
[8] = source organism: Trypanosoma cruzi
[9] = source organism: Mammarenavirus machupoense
[10] = source organism: Lassa virus Josiah
[11] = source organism: Mammarenavirus juninense
[12] = source organism: Dengue virus 3 Martinique/1243/1999

Sequence: QMSSGNLLF
- Kd (HLA-A*01:01): 4390 nM
- Kd (HLA-B*15:01 [1]; source organism: Dengue virus 2 Jamaica/1409/1983): 6.83 nM

Sequence: TVLEKNVTV
- Kd (HLA-A*02:01 [2]; source organism: Influenza A virus (A/Harbin/1/1988(H1N2))): 5.8 nM

Sequence: GLSRPLLRL
- Kd (HLA-A*02:01 [3]; source organism: Hepatitis B virus subtype ayw): ≥ 5000 nM

Sequence: SEAFLIGANY
- Kd (HLA-B*18:01; [5]): 4.42 nM
- Kd (HLA-B*40:01; [5]): ≥ 10000 nM
- Kd (HLA-B*40:02; [5]): 348 nM
- Kd (HLA-B*44:02; [5]): 8.47 nM
- Kd (HLA-B*44:03; [5]): 3.75 nM
- Kd (HLA-B*45:01; [5]): 578 nM

Sequence: QEADNMITEM
- Kd (HLA-B*18:01; [6]): 1470 nM
- Kd (HLA-B*40:01; [6]): 5360 nM
- Kd (HLA-B*40:02; [6]): 124 nM
- Kd (HLA-B*44:02; [6]): 224 nM
- Kd (HLA-B*44:03; [6]): 813 nM
- Kd (HLA-B*45:01; [6]): 1190 nM

Sequence: IVIGVGNSAL
- Kd (HLA-B*15:01 [1]; source organism: Dengue virus 4 Dominica/814669/1981): 52.9 nM

Sequence: LTFDYVVTF
- Kd (HLA-A*32:01; [7]): 17.2 nM
- Kd (HLA-B*15:01 [1]; [7]): 2.45 nM

Sequence: AVDLSHFL
- Kd (HLA-B*15:01 [4]; source organism: Chloroflexus aurantiacus J-10-fl): ≥ 20000 nM

Sequence: RSSMKLLSY
- Kd (HLA-B*15:01 [4]; source organism: Yersinia pestis Nepal516): 88.6 nM

Sequence: LEVKFNAPA
- Kd (HLA-B*18:01; [5]): 111 nM
- Kd (HLA-B*40:01; [5]): 5310 nM
- Kd (HLA-B*40:02; [5]): 9.33 nM
- Kd (HLA-B*44:02; [5]): ≥ 21300 nM
- Kd (HLA-B*44:03; [5]): 6010 nM
- Kd (HLA-B*45:01; [5]): 4.46 nM

Sequence: EVLRPTTLV
- Kd (HLA-A*02:01 [3]; [8]): 13700 nM
- Kd (HLA-A*02:02): 6570 nM
- Kd (HLA-A*02:03; [8]): 5480 nM
- Kd (HLA-A*02:06): 1460 nM
- Kd (HLA-A*68:02; [8]): 6.8 nM

Sequence: MDGIQYGRSG
- Kd (HLA-B*18:01; [5]): ≥ 70500 nM
- Kd (HLA-B*40:01; [5]): ≥ 69600 nM
- Kd (HLA-B*40:02; [5]): ≥ 70800 nM
- Kd (HLA-B*44:02; [5]): ≥ 49900 nM
- Kd (HLA-B*44:03; [5]): ≥ 58600 nM
- Kd (HLA-B*45:01; [5]): 10900 nM

Sequence: EISSIISLM
- Kd (HLA-A*26:01; source organism: Bacillus anthracis str. A2012): 9.8 nM

Sequence: RECYAQRFYL
- Kd (HLA-B*18:01; [9]): 137 nM
- Kd (HLA-B*40:01; [9]): 9580 nM
- Kd (HLA-B*40:02; [9]): 5.55 nM
- Kd (HLA-B*44:02; [9]): 525 nM
- Kd (HLA-B*44:03; [9]): 250 nM
- Kd (HLA-B*45:01; [9]): 1440 nM

Sequence: RIMAWTVVNSI
- Kd (HLA-A*02:01 [2]; source organism: Influenza A virus (A/chicken/California/1002a/00(H6N2))): ≤ 1 nM

Sequence: AEAQMSIQLI
- Kd (HLA-B*18:01; [10]): ≥ 23500 nM
- Kd (HLA-B*40:01; [10]): 1300 nM
- Kd (HLA-B*40:02; [10]): 53.9 nM
- Kd (HLA-B*44:02; [10]): 34.6 nM
- Kd (HLA-B*44:03; [10]): 69.1 nM
- Kd (HLA-B*45:01; [10]): 78.9 nM

Sequence: MVHIYFVSL
- Kd (HLA-B*08:01; [7]): 1.35 nM
- Kd (HLA-B*15:01 [1]; [7]): 5460 nM

Sequence: ELRLLIHQSL
- Kd (HLA-A*02:01 [3]; source organism: Homo sapiens): 1510 nM
- Kd (HLA-A*02:03; source organism: Homo sapiens): 1580 nM
- Kd (HLA-A*68:02; source organism: Homo sapiens): 1130 nM

Sequence: SDQKFVDVI
- Kd (HLA-B*18:01; [11]): ≥ 26300 nM
- Kd (HLA-B*40:01; [11]): ≥ 70700 nM
- Kd (HLA-B*40:02; [11]): 4430 nM
- Kd (HLA-B*44:02; [11]): ≥ 25400 nM
- Kd (HLA-B*44:03; [11]): ≥ 78100 nM
- Kd (HLA-B*45:01; [11]): 16700 nM

Sequence: QIHLAIMAVF
- Kd (HLA-B*15:01 [1]; source organism: Dengue virus 4 Philippines/H241/1956): 17 nM

Sequence: LLLSINSSF
- Kd (HLA-A*32:01; source organism: Variola virus): 2090 nM
- Kd (HLA-B*15:01 [1]; source organism: Variola virus): 0.883 nM

Sequence: SELRPDTRY
- Kd (HLA-B*18:01; [5]): 11200 nM
- Kd (HLA-B*40:01; [5]): 11300 nM
- Kd (HLA-B*40:02; [5]): 3140 nM
- Kd (HLA-B*44:02; [5]): 520 nM
- Kd (HLA-B*44:03; [5]): 714 nM
- Kd (HLA-B*45:01; [5]): 1650 nM

Sequence: EEVAIILASF
- Kd (HLA-B*18:01; [5]): 108 nM
- Kd (HLA-B*40:01; [5]): 3430 nM
- Kd (HLA-B*40:02; [5]): 406 nM
- Kd (HLA-B*44:02; [5]): 77.6 nM
- Kd (HLA-B*44:03; [5]): 19.2 nM
- Kd (HLA-B*45:01; [5]): 1390 nM

Sequence: GILKSILKV
- Kd (HLA-A*02:01 [2]; [10]): 39.1 nM

Sequence: DICSGLQQL
- Kd (HLA-A*26:01; source organism: Escherichia coli O139:H28 str. E24377A): ≥ 20000 nM

Sequence: LLWFLTGTF
- Kd (HLA-A*32:01; [7]): 93 nM
- Kd (HLA-B*15:01 [1]; [7]): 0.776 nM

Sequence: IQNSGGTSI
- Kd (HLA-B*15:01 [1]; [12]): 25.7 nM

Sequence: PENQEDPLVL
- Kd (HLA-B*18:01; [9]): ≥ 70400 nM
- Kd (HLA-B*40:01; [9]): ≥ 39500 nM
- Kd (HLA-B*40:02; [9]): ≥ 70800 nM
- Kd (HLA-B*44:02; [9]): ≥ 70200 nM
- Kd (HLA-B*44:03; [9]): ≥ 70100 nM
- Kd (HLA-B*45:01; [9]): ≥ 70000 nM

Sequence: LQWIASAIVL
- Kd (HLA-B*08:01; [12]): 4970 nM
- Kd (HLA-B*15:01 [1]; [12]): 6.43 nM

Sequence: MMKTYIEFV
- Kd (HLA-B*15:01 [1]; [7]): 170 nM

Sequence: KEKAPDVGVL
- Kd (HLA-B*18:01; [9]): ≥ 70400 nM
- Kd (HLA-B*40:01; [9]): 1050 nM
- Kd (HLA-B*40:02; [9]): 64.9 nM
- Kd (HLA-B*44:02; [9]): 2410 nM
- Kd (HLA-B*44:03; [9]): ≥ 62100 nM
- Kd (HLA-B*45:01; [9]): ≥ 30900 nM

Sequence: MELPTGVHA
- Kd (HLA-B*18:01; [5]): 18000 nM
- Kd (HLA-B*40:01; [5]): ≥ 24900 nM
- Kd (HLA-B*40:02; [5]): 2740 nM
- Kd (HLA-B*44:02; [5]): 7800 nM
- Kd (HLA-B*44:03; [5]): 13800 nM
- Kd (HLA-B*45:01; [5]): 78.9 nM
